Results on 3 substances are retold here after patent publication US5795721.

The target of the series is T1, FP505 (ICP4 residues 210-490 DNA-binding/dimerization domain fusion) (Herpes simplex virus 1) (UniProt P08392).
T1 sequence: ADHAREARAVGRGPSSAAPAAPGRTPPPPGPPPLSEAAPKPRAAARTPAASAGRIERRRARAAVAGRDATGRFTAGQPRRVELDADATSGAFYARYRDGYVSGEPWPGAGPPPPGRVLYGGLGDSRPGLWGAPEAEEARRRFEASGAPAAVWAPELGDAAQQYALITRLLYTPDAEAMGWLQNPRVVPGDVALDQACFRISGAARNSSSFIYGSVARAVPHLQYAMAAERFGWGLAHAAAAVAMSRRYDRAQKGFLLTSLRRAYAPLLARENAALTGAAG
As to the kind of experiment: filter.

Some results are limits rather than exact numbers.

The term Kd denotes a measure of binding affinity in units of concentration. Higher therefore signals a looser complex. As to ICP0 promoter duplex 200mer, the Kd (without tRNA, >1 uM with tRNA excess) is 0.0005 µM.

Take “GGGAGACAAGAAUAAACGCUCAANNNNNNNNNNNNNNNNNNNNNNNNNNNNNNNNNNNNNNNNUUCGACAGGAGGCUCACAACAGGC [random RNA pool]”: under “random pool”, the Kd is above 0.1 µM.

“GGGAGGACAGTGCGGNNNNNNNNNNNNNNNNNNNNNNNNNNNNNNNNNNNNNNNNCAGTGCGTCAGTCAAC [random ssDNA pool]” displayed a dissociation constant (Kd) (with tRNA, >11 nM without tRNA) above 0.16 µM.
